{"source": "patent US10499655B2", "about": "“Reagents and methods for inhibiting or disrupting biofilm” (priority 2015, dated 2019)", "molecules": {"B1": {"name": "PsIG protein: Protein from Pseudomonas aeruginosa PAO1, purified PsIG (31-442) of SEQ ID NO.: 2, expressed in E. coli, 47 kDa (protein, listed as Pseudomonas aeruginosa)", "chain": "EIQVLKAPRAVVWKDFLGVNAQFLWFSPERYNKQIDRLQDLGLEWVRLDLHWDRLETAEDQYQLASLDQLVKDLEARQLKSVFYLVGSARFITTAPFYSPFQDQYPPRDPEVFARRMAMLSQRYPSVAAWQVWNEPNLIGFWRPKADPEGYAKLLQASTIALRMVDPEKPVVSAGMAFFSEMPDGRTMFDALGHLGVESLGTIATYHPYTQLPEGNYPWNLDFVSHANQINRALRNAGVPAIWSTEWGWSAYKGPKELQDIIGVEGQADYVLRRLALMSALDYDRIFLFTLSDLDQRASVRDRDYGLLDLDANPKPVYLALQRFLKVTGPKLRPADPPVTEDLPDGSFSIGWTREDGRNVWLFWSARGGNVRLPKLKEATLHDPLSGKVTPLSGSDGLEVPVKSSLQMLVWE"}}, "key": {"Pseudomonas aeruginosa [1]": {"system": "Pseudomonas aeruginosa", "assay": "MIC test strips on bacteria dispersed from a biofilm by PsIG versus planktonic bacteria", "format": "cell-based", "settings": "24-hour biofilm treated with PsIG 1 hour; MIC read after 16 hours at 37 degrees centigrade", "protocol": "Planktonic Pseudomonas aeruginosa may be cultured for 24 hours with shocking in LBNS medium, and 0.2 ml of such culture may be used as control. As shown in FIGS. 8(a) and 8(c), a control group have shown measurement of MIC values of TOB, CIP by a planktonic bacteria. FIGS. 8(b) and 8(d) have shown measurement of MIC values of TOB, CIP by bacteria cells dispersed from the biofilm after the treatment of the PsIG protein."}, "[2]": {"system": "biofilm of Pseudomonas aeruginosa", "assay": "Inhibition of biofilm formation, crystal violet staining, 96-well plate", "format": "cell-based", "text": "(§1) The biomass of the biofilm has been detected by a crystal violet staining method. The method including: discarding cultures (bacteria that are not attached on wells.) in the wells, and washing three times. Then, the biofilm may be stained with 0.1% crystal violet, and washed three times, then the crystal violet combined in the biofilm may be dissolved with 30% acetic acid, and the value of OD560 thereof (for example, the concentration of the crystal violet) may be measured by a spectrophotometer to measure the biomass of the biofilm was measured. PAO1-derived PsI polysaccharide negative strain (PAO1, A psi) may be used as a negative control, and PAO1-derived PsI polysaccharide inducible strain (PAO1, PBAD-psI) (arabinose used as an inducer) may be used as positive control.\nA fresh single colony of Pseudomonas aeruginosa on the LBNS plate may be inoculated in LBNS liquid medium, carried out shake culture at 200 rpm at 37 degrees centigrade for 12 hours, and then inoculated in Jensen's medium with 1% inoculum dose, at the same time, different concentrations of PsIG protein may be added. After static culture in a 96-well plate at 30 degrees centigrade for 24 hours, liquid cultures were discarded and the biofilm may be stained with the crystal violet, and biomass of the biofilm was detected, in which specific operations may refer to the steps in Example 1. […]"}, "[3]": {"system": "formed biofilm of Pseudomonas aeruginosa", "assay": "Disruption of formed biofilm, crystal violet staining", "format": "cell-based", "text": "as §1\nA fresh single colony of Pseudomonas aeruginosa on the LBNS plate may be inoculated in LBNS liquid medium, carried out shake culture at 200 rpm at 37 degrees centigrade for 12 hours, and then inoculated in Jensen's media with 1% inoculum dose, with static culture in a 96-well plate at 30 degrees centigrade for 24 hours. Cultures may be discarded and the biofilm (surface-attached bacteria) was washed with 0.8% physiological saline for three times. 100 μl Jensen's media containing 1 nM PsIG may be added into wells and the biofilm treated for 5 or 30 minutes. Then, biomass of the treated biofilm may be detected by the crystal violet staining method, in which specific operation steps of the crystal violet staining method may refer to Example 2.\nAt the same time, Jensen's media without addition of PsIG may be used as a control group.\nA fresh single colony of Pseudomonas aeruginosa on the LBNS plate may be inoculated in LBNS liquid medium, carried out shake culture at 200 rpm at 37 degrees centigrade for 12 hours, and then inoculated in Jensen's media with 1% inoculum dose, and carried out static culture in a 96-well plate at 30 degrees centigrade for 24 hours. Cultures were discarded and the biofilm was washed with 0.8% physiological saline for three times. 100 μl Jensen's media containing 50 nM PsIG protein was added and the biofilm was treated for different times. Then, biomass of the treated biofilms may be tested by a crystal violet staining method, in which specific operation steps of the crystal violet staining method may refer to Example 2."}, "[4]": {"system": "biofilm of Pseudomonas syringae", "assay": "Inhibition of biofilm formation, crystal violet staining", "format": "cell-based", "settings": "50 nM PsIG"}, "Pseudomonas aeruginosa [5]": {"system": "Pseudomonas aeruginosa", "assay": "Inhibitory zone on LBNS plate with filter paper", "format": "cell-based", "settings": "50 nM PsIG; 24 hours at 37 degrees centigrade", "protocol": "As shown in FIG. 9(a), four experimental groups may be set for buffer; 50 nM PsIG; tobramycin (TOB); combination of TOB and PsIG, respectively. Experiment 2:\nAs shown in FIG. 9(b), four experimental groups may be set for buffer; 50 nM PsIG; ciprofloxacin (CIP); combination of CIP and PsIG, respectively."}, "Caco2": {"system": "Caco2", "settings": "PsIG treatment 12 hours", "text": "(§2) Cytotoxicity of a PsIG protein may be detected by human colon epithelial cell line Caco2 and HT-29."}, "HT-29": {"system": "HT-29", "settings": "PsIG treatment 12 hours", "text": "as §2"}, "PAO1 biofilm": {"system": "PAO1 biofilm", "assay": "Clearance of PsIG-treated biofilm by macrophages, CFU count", "format": "cell-based, Pseudomonas aeruginosa", "settings": "biofilm treated with PsIG 1 hour, then macrophages 2 hours; versus controls without PsIG", "protocol": "The PAO1 biofilm cultured on glass coverslips for 24 hours was treated with PsIG and co-incubated with macrophages, and then scraped and resuspended in 1 ml of physiological saline to quantify colony formation unit (CFU). The mean and SD values of CFU obtained by three repeated experiments were shown in the figure and T test (*, P<0.01) was performed for different experimental groups.\nThe PAO1 biofilm cultured on glass coverslips for 24-hours may be treated with the PsIG protein for 1 hour, and then incubated with macrophages for 2 hours, and remaining biofilm may be scraped and resuspended in 1 ml of physiological saline for colony formation unit (CFU)."}, "[6]": {"system": "biofilm of Pseudomonas aeruginosa on implants", "assay": "Mouse implant infection model", "format": "in vivo", "settings": "mouse peritoneum, local treatment, 24 hours; 50 nM PsIG and/or 50 mg kg-1 tobramycin", "protocol": "FIG. 12 illustrates a mouse implant infections model. PsIG improves host clearance of implant biofilms and show combinatory effect with Tob in eradication of implant biofilms in vivo. The horizontal dashed line represents a detection limit of the experiment, which is shown as mean (*P<0.01) of the biofilm counts in five mice.\nImplants coated by the biofilm of Pseudomonas aeruginosa may be inserted into mouse peritoneum and the following treatments may be performed locally: 50 nM PsIG treatment alone; 50 mg kg-1 tobramycin treatment alone; the 50 nM PsIG and the 50 mg kg-1 tobramycin co-treatment. After culture in vivo for 24 hours, mice may be sacrificed so as to harvest the implants, and the implants may be removed out and counted on LB plates after homogenization. The number of Pseudomonas aeruginosa on the implants may be tabulated with a format of CFU/ml."}, "[7]": {"system": "L4-stage Caenorhabditis elegans", "assay": "Toxicity of PsIG-dispersed biofilm bacteria to C. elegans", "format": "in vivo", "settings": "co-incubated 25 degrees centigrade, 48 hours; live/dead nematodes", "protocol": "The experiment may be carried out by using C. elegans as a host model.\nTwo experimental groups may be set for Experimental group 1 and Experimental group 2, respectively.\nExperiment group 1: the bacterial cells collected from a PsIG-treated bacterial biofilm (a biofilm of Pseudomonas aeruginosa) may be co-incubated with L4-stage Caenorhabditis elegans.\nExperimental group 2: co-incubation the planktonic culture of Pseudomonas aeruginosa grown for 24 hours may be co-incubated L4-stage Caenorhabditis elegans.\nExperimental group 1 and Experimental group 2 were placed in 96-well plates respectively and co-incubated at 25 degrees centigrade for 48 hours. […] Each group was repeated for three times, the results are expressed with a format of the mean value±SD value."}, "[8]": {"assay": "Degradation of PsI polysaccharide in vitro, immunoblotting", "format": "biochemical, Pseudomonas aeruginosa", "settings": "50 nM PsIG", "text": "Preparation and purification of PsI polysaccharide may be carried out with reference to published document (Molecular Microbiology 2009; 73:622-638, titled Genetic and biochemical analyses of the Pseudomonas aeruginosa PsI exopolysaccharide reveal overlapping roles for polysaccharide synthesis enzymes in PsI and LPS production, written by Byrd M S, Sadovskaya I, Vinogradov E et al.)\nThe standard curve may be prepared according to the following method: PsI polysaccharide prepared by the above method may be diluted 10 times with gradient and the PsI polysaccharide may be detected by immunoblotting.\nTo Solution 1 (PBS phosphate buffer), PsI polysaccharide and 50 nM of the PsIG protein obtained in Example 16 may be added to obtain Reaction system 1, the concentration of PsI polysaccharide in reaction system 1 may be 4 mg/ml, and the concentration of PsIG protein may be 50 nM. The eight same reaction systems 1 may be incubated at 20 degrees centigrade, 25 degrees centigrade, 30 degrees centigrade, 37 degrees centigrade, 40 degrees centigrade, 45 degrees centigrade, 50 degrees centigrade and 55 degrees centigrade for one hour, respectively, and then remaining PsI polysaccharide may be detected with a PsI polysaccharide antibody (the PsI polysaccharide antibody may be obtained by using PsI polysaccharide as immunogen) by immunoblotting. […]"}, "[9]": {"system": "mouse macrophages (RAW264.7)"}}}
{"molecule": "NC[C@H]1O[C@H](O[C@H]2[C@H](O)[C@@H](O[C@H]3O[C@H](CO)[C@@H](O)[C@H](N)[C@H]3O)[C@H](N)C[C@@H]2N)[C@H](N)C[C@@H]1O", "note": "[tobramycin]", "values": [{"measurement": "MIC values for bacteria dispersed from biofilms by PsIG compared with planktonic cells", "setting": "Pseudomonas aeruginosa [1]", "result": "lower"}]}
{"molecule": "O=C(O)c1cn(C2CC2)c2cc(N3CCNCC3)c(F)cc2c1=O", "note": "[ciprofloxacin]", "values": [{"measurement": "MIC values for bacteria dispersed from biofilms by PsIG compared with planktonic cells", "setting": "Pseudomonas aeruginosa [1]", "result": "lower"}]}
{"molecule": "B1", "values": [{"measurement": "inhibitory rate on biofilm formation", "setting": "[2]; PsIG protein at 1 nM, static culture 30 degrees centigrade, 24 hours", "result": 50, "unit": "%"}, {"measurement": "inhibition of formation of the biofilm", "setting": "[2]; concentration l0nm-50nm, static culture 24 hours", "result": "significantly inhibit"}, {"measurement": "reduction of biomass of formed biofilm", "setting": "[3]; 1 nM PsIG, treated 30 minutes, 24-hour biofilm", "result": 50, "unit": "%"}, {"measurement": "effect on biomass of formed biofilm", "setting": "[3]; 1 nM PsIG, treated five minutes, 24-hour biofilm", "result": "no effect"}, {"measurement": "reduction of biomass of formed biofilm", "setting": "[3]; 50 nM PsIG, treated 10 minutes, 24-hour biofilm", "result": 50, "unit": "%"}, {"measurement": "effect on biomass of formed biofilm", "setting": "[3]; 50 nM PsIG, treated 30 minutes, 24-hour biofilm", "result": "reduced to a level similar to the PsI polysaccharide-negative strain"}, {"measurement": "effect on biomass of formed biofilm", "setting": "[3]; 50 nM PsIG, treated five minutes, 24-hour biofilm", "result": "significantly reduced"}, {"measurement": "effect on biomass of formed biofilm", "setting": "[3]; 50 nM PsIG, treated more than 30 minutes", "result": "no more significant reduction"}, {"measurement": "inhibitory effect on biofilm", "setting": "[4]", "result": "same inhibitory effects"}, {"measurement": "inhibitory zone, PsIG alone", "setting": "Pseudomonas aeruginosa [5]", "result": "does not produce inhibitory zone"}, {"measurement": "effect on activity of colon epithelial cells (MTT)", "setting": "Caco2", "result": "no effect"}, {"measurement": "effect on activity of colon epithelial cells (MTT)", "setting": "HT-29", "result": "no effect"}, {"measurement": "number of remaining bacteria of the biofilm", "setting": "PAO1 biofilm", "result": "least"}, {"measurement": "number of bacteria on the implants", "setting": "[6]", "result": "≈ 10^3 CFU/mL"}, {"measurement": "toxicity of PsIG-dispersed biofilm bacteria versus planktonic bacteria", "setting": "[7]", "result": "no significant difference in toxicity"}, {"measurement": "temperature of highest degradation rate of PsI polysaccharide", "setting": "[8]; 4 mg/ml PsI, one hour", "result": 45, "unit": "degrees centigrade"}, {"measurement": "reduction of amount of PsI polysaccharide compared with untreated control", "setting": "[8]; 30 degrees centigrade, 1 hour", "result": 75, "unit": "%"}, {"measurement": "toxic effects on macrophages", "setting": "[9]", "result": "not shown any toxic effects"}]}
